Measurements as given in article PMC9274624.

What was measured:
Assay in all cases: SPR
[1] = molecular target: cat ACE2 extracellular domain (residues 1-740) fused with the Fc domain of mouse IgG (cat) (UniProt Q56H28)
[2] = molecular target: rabbit ACE2 extracellular domain (residues 1-740) fused with the Fc domain of mouse IgG (rabbit) (UniProt G1TEF4)
[3] = molecular target: horse ACE2 extracellular domain (residues 1-740) fused with the Fc domain of mouse IgG (horse) (UniProt F6V9L3)
[4] = molecular target: goat ACE2 extracellular domain (residues 1-740) fused with the Fc domain of mouse IgG (goat)
[5] = molecular target: dog ACE2 extracellular domain (residues 1-740) fused with the Fc domain of mouse IgG (dog)
[6] = molecular target: big-eared horseshoe bat ACE2 extracellular domain (residues 1-740) fused with the Fc domain of mouse IgG (big-eared horseshoe bat)
[7] = molecular target: sheep ACE2 extracellular domain (residues 1-740) fused with the Fc domain of mouse IgG (sheep)
[8] = molecular target: mink ACE2 extracellular domain (residues 1-740) fused with the Fc domain of mouse IgG (mink)
[9] = molecular target: fox ACE2 extracellular domain (residues 1-740) fused with the Fc domain of mouse IgG (fox)
[10] = molecular target: little brown bat ACE2 extracellular domain (residues 1-740) fused with the Fc domain of mouse IgG (little brown bat) (UniProt G1PXH7)
[11] = molecular target: wild Bactrian camel ACE2 extracellular domain (residues 1-740) fused with the Fc domain of mouse IgG (wild Bactrian camel)
[12] = molecular target: raccoon dog ACE2 extracellular domain (residues 1-740) fused with the Fc domain of mouse IgG (raccoon dog) (UniProt B4XEP4)
[13] = molecular target: monkey ACE2 extracellular domain (residues 1-740) fused with the Fc domain of mouse IgG (monkey) (UniProt F7AH40)
[14] = molecular target: fulvous fruit bat ACE2 extracellular domain (residues 1-740) fused with the Fc domain of mouse IgG (fulvous fruit bat)
[15] = molecular target: alpaca ACE2 extracellular domain (residues 1-740) fused with the Fc domain of mouse IgG (alpaca)
[16] = molecular target: pig ACE2 extracellular domain (residues 1-740) fused with the Fc domain of mouse IgG (pig) (UniProt K7GLM4)
[17] = molecular target: bovine ACE2 extracellular domain (residues 1-740) fused with the Fc domain of mouse IgG (bovine) (UniProt Q58DD0)

Q: Which results are given for “SARS-CoV-2 prototype RBD (residues 319-541) (from UniProt P0DTC2 319-541) (domain or fragment)”?
A: Kd [1]: 0.099 µM; Kd [2]: 0.0481 µM; Kd [3]: 0.221 µM; Kd [4]: 0.213 µM; Kd [5]: 0.101 µM; Kd [6]: 0.677 µM; Kd [7]: 0.174 µM; Kd [8]: 0.305 µM; Kd [9]: 0.0562 µM; Kd [10]: 0.13 µM; Kd [11]: 0.104 µM; Kd [12]: 0.08 µM; Kd [13]: 0.022 µM; Kd [14]: 0.157 µM; Kd [15]: 11.8 µM; Kd [16]: 0.139 µM; Kd [17]: 0.181 µM
